Experimental data as given in patent US20160272693A1 (ZEALAND PHARMA A S, published 2016).
*1 amine or outer side, *2 acyl side, *3 side chain or, on linkers, in order; H or OH if unused. Bridges are numbered along the chain shown (N, C = ends). [ ]: non-standard residue; d: D form. The star is where a group is joined. Pro(trans-4-NH2) = O=C([C@@H]1C[C@@H](N[*:3])CN1[*:1])[*:2]; C20 diacid = O=C(O)CCCCCCCCCCCCCCCCCCC(=O)*; γGlu = O=C(O)[C@H](CCC(=O)[*:2])N[*:1]; Hyp = O=C(O)[C@@H]1C[C@@H](O)CN1; NMeI = CC[C@H](C)[C@H](NC)C(=O)O; Aad = N[C@@H](CCCC(=O)O)C(=O)O; Orn = NCCC[C@H](N)C(=O)O; Sar = CNCC(=O)O

T1: human amylin receptor 3 (hAMYR3), hCTR2 co-expressed with human receptor activity modifying protein 3 (hRAMP3) (human, UniProt P30988 25-474; O60896 24-148)
T1 sequence (looked up) 1: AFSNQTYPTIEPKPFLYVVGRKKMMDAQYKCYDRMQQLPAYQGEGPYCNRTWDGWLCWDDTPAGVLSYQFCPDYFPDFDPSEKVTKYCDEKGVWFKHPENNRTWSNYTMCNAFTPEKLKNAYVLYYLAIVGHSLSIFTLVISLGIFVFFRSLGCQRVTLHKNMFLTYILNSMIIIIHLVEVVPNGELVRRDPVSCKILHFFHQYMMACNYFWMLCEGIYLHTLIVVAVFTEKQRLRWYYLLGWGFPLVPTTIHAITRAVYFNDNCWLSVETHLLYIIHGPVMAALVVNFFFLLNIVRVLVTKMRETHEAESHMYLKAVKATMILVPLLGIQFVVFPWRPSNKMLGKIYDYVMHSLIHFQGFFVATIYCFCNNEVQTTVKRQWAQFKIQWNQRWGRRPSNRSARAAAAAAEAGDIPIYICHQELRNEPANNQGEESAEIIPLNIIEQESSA
T1 sequence (looked up) 2: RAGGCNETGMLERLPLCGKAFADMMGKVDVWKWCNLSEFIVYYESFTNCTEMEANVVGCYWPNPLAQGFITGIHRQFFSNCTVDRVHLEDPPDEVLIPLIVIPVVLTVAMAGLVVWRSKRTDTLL

B1: [19CD]-isoGlu-R-C( )-GTAT-C( )-ATERLA-Aad-FLTRSSF-Gly(Me)-A-Ile(Me)-LSSTEVGS-Orn-T-Hyp-NH2 (Compd. 44) (peptide)
peptide: {C20 diacid}-[γGlu]RCGTATCATERLA[Aad]FLTRSSF[Sar]A[NMeI]LSSTEVGS[Orn]T[Hyp]-NH2
modifications: disulfide 3-8
SMILES: CC[C@H](C)[C@@H](C(=O)N[C@@H](CC(C)C)C(=O)N[C@@H](CO)C(=O)N[C@@H](CO)C(=O)N[C@H](C(=O)N[C@@H](CCC(=O)O)C(=O)N[C@H](C(=O)NCC(=O)N[C@@H](CO)C(=O)N[C@@H](CCCN)C(=O)N[C@H](C(=O)N1C[C@H](O)C[C@H]1C(N)=O)[C@@H](C)O)C(C)C)[C@@H](C)O)N(C)C(=O)[C@H](C)NC(=O)CN(C)C(=O)[C@H](Cc1ccccc1)NC(=O)[C@H](CO)NC(=O)[C@H](CO)NC(=O)[C@H](CCCNC(=N)N)NC(=O)[C@@H](NC(=O)[C@H](CC(C)C)NC(=O)[C@H](Cc1ccccc1)NC(=O)[C@H](CCCC(=O)O)NC(=O)[C@H](C)NC(=O)[C@H](CC(C)C)NC(=O)[C@H](CCCNC(=N)N)NC(=O)[C@H](CCC(=O)O)NC(=O)[C@@H](NC(=O)[C@H](C)NC(=O)[C@@H]1CSSC[C@H](NC(=O)[C@H](CCCNC(=N)N)NC(=O)CC[C@H](NC(=O)CCCCCCCCCCCCCCCCCCC(=O)O)C(=O)O)C(=O)NCC(=O)N[C@@H]([C@@H](C)O)C(=O)N[C@@H](C)C(=O)N[C@@H]([C@@H](C)O)C(=O)N1)[C@@H](C)O)[C@@H](C)O
B2: [19CD]-isoGlu-R-C( )-GTAT-C( )-ATERLA-Aad-FLTRSSF-Gly(Me)-A-Ile(Me)-LSSTEVGSST-Hyp-NH2 (Compd. 43) (peptide)
peptide: {C20 diacid}-[γGlu]RCGTATCATERLA[Aad]FLTRSSF[Sar]A[NMeI]LSSTEVGSST[Hyp]-NH2
modifications: disulfide 3-8
SMILES: CC[C@H](C)[C@@H](C(=O)N[C@@H](CC(C)C)C(=O)N[C@@H](CO)C(=O)N[C@@H](CO)C(=O)N[C@H](C(=O)N[C@@H](CCC(=O)O)C(=O)N[C@H](C(=O)NCC(=O)N[C@@H](CO)C(=O)N[C@@H](CO)C(=O)N[C@H](C(=O)N1C[C@H](O)C[C@H]1C(N)=O)[C@@H](C)O)C(C)C)[C@@H](C)O)N(C)C(=O)[C@H](C)NC(=O)CN(C)C(=O)[C@H](Cc1ccccc1)NC(=O)[C@H](CO)NC(=O)[C@H](CO)NC(=O)[C@H](CCCNC(=N)N)NC(=O)[C@@H](NC(=O)[C@H](CC(C)C)NC(=O)[C@H](Cc1ccccc1)NC(=O)[C@H](CCCC(=O)O)NC(=O)[C@H](C)NC(=O)[C@H](CC(C)C)NC(=O)[C@H](CCCNC(=N)N)NC(=O)[C@H](CCC(=O)O)NC(=O)[C@@H](NC(=O)[C@H](C)NC(=O)[C@@H]1CSSC[C@H](NC(=O)[C@H](CCCNC(=N)N)NC(=O)CC[C@H](NC(=O)CCCCCCCCCCCCCCCCCCC(=O)O)C(=O)O)C(=O)NCC(=O)N[C@@H]([C@@H](C)O)C(=O)N[C@@H](C)C(=O)N[C@@H]([C@@H](C)O)C(=O)N1)[C@@H](C)O)[C@@H](C)O
B3: [19CD]-isoGlu-R-C( )-GTAT-C( )-ATERLAHFLTRSSF-Gly(Me)-A-Ile(Me)-LSSTEVGSSTP-NH2 (Compd. 46) (peptide)
peptide: {C20 diacid}-[γGlu]RCGTATCATERLAHFLTRSSF[Sar]A[NMeI]LSSTEVGSSTP-NH2
modifications: disulfide 3-8
SMILES: CC[C@H](C)[C@@H](C(=O)N[C@@H](CC(C)C)C(=O)N[C@@H](CO)C(=O)N[C@@H](CO)C(=O)N[C@H](C(=O)N[C@@H](CCC(=O)O)C(=O)N[C@H](C(=O)NCC(=O)N[C@@H](CO)C(=O)N[C@@H](CO)C(=O)N[C@H](C(=O)N1CCC[C@H]1C(N)=O)[C@@H](C)O)C(C)C)[C@@H](C)O)N(C)C(=O)[C@H](C)NC(=O)CN(C)C(=O)[C@H](Cc1ccccc1)NC(=O)[C@H](CO)NC(=O)[C@H](CO)NC(=O)[C@H](CCCNC(=N)N)NC(=O)[C@@H](NC(=O)[C@H](CC(C)C)NC(=O)[C@H](Cc1ccccc1)NC(=O)[C@H](Cc1c[nH]cn1)NC(=O)[C@H](C)NC(=O)[C@H](CC(C)C)NC(=O)[C@H](CCCNC(=N)N)NC(=O)[C@H](CCC(=O)O)NC(=O)[C@@H](NC(=O)[C@H](C)NC(=O)[C@@H]1CSSC[C@H](NC(=O)[C@H](CCCNC(=N)N)NC(=O)CC[C@H](NC(=O)CCCCCCCCCCCCCCCCCCC(=O)O)C(=O)O)C(=O)NCC(=O)N[C@@H]([C@@H](C)O)C(=O)N[C@@H](C)C(=O)N[C@@H]([C@@H](C)O)C(=O)N1)[C@@H](C)O)[C@@H](C)O
B4: [19CD]-isoGlu-R-C( )-GTAT-C( )-ATERLADFLTRSSF-Gly(Me)-A-Ile(Me)-LSSTEVGSFT-Hyp-NH2 (Compd. 42) (peptide)
peptide: {C20 diacid}-[γGlu]RCGTATCATERLADFLTRSSF[Sar]A[NMeI]LSSTEVGSFT[Hyp]-NH2
modifications: disulfide 3-8
SMILES: CC[C@H](C)[C@@H](C(=O)N[C@@H](CC(C)C)C(=O)N[C@@H](CO)C(=O)N[C@@H](CO)C(=O)N[C@H](C(=O)N[C@@H](CCC(=O)O)C(=O)N[C@H](C(=O)NCC(=O)N[C@@H](CO)C(=O)N[C@@H](Cc1ccccc1)C(=O)N[C@H](C(=O)N1C[C@H](O)C[C@H]1C(N)=O)[C@@H](C)O)C(C)C)[C@@H](C)O)N(C)C(=O)[C@H](C)NC(=O)CN(C)C(=O)[C@H](Cc1ccccc1)NC(=O)[C@H](CO)NC(=O)[C@H](CO)NC(=O)[C@H](CCCNC(=N)N)NC(=O)[C@@H](NC(=O)[C@H](CC(C)C)NC(=O)[C@H](Cc1ccccc1)NC(=O)[C@H](CC(=O)O)NC(=O)[C@H](C)NC(=O)[C@H](CC(C)C)NC(=O)[C@H](CCCNC(=N)N)NC(=O)[C@H](CCC(=O)O)NC(=O)[C@@H](NC(=O)[C@H](C)NC(=O)[C@@H]1CSSC[C@H](NC(=O)[C@H](CCCNC(=N)N)NC(=O)CC[C@H](NC(=O)CCCCCCCCCCCCCCCCCCC(=O)O)C(=O)O)C(=O)NCC(=O)N[C@@H]([C@@H](C)O)C(=O)N[C@@H](C)C(=O)N[C@@H]([C@@H](C)O)C(=O)N1)[C@@H](C)O)[C@@H](C)O
B5: [19CD]-isoGlu-R-C( )-GTAT-C( )-ATERLAHFLTRSSF-Gly(Me)-A-Ile(Me)-LSSTEVGSST-Apr-NH2 (Compd. 45) (peptide)
peptide: {C20 diacid}-[γGlu]RCGTATCATERLAHFLTRSSF[Sar]A[NMeI]LSSTEVGSST[Pro(trans-4-NH2)]-NH2
modifications: disulfide 3-8
SMILES: CC[C@H](C)[C@@H](C(=O)N[C@@H](CC(C)C)C(=O)N[C@@H](CO)C(=O)N[C@@H](CO)C(=O)N[C@H](C(=O)N[C@@H](CCC(=O)O)C(=O)N[C@H](C(=O)NCC(=O)N[C@@H](CO)C(=O)N[C@@H](CO)C(=O)N[C@H](C(=O)N1C[C@H](N)C[C@H]1C(N)=O)[C@@H](C)O)C(C)C)[C@@H](C)O)N(C)C(=O)[C@H](C)NC(=O)CN(C)C(=O)[C@H](Cc1ccccc1)NC(=O)[C@H](CO)NC(=O)[C@H](CO)NC(=O)[C@H](CCCNC(=N)N)NC(=O)[C@@H](NC(=O)[C@H](CC(C)C)NC(=O)[C@H](Cc1ccccc1)NC(=O)[C@H](Cc1c[nH]cn1)NC(=O)[C@H](C)NC(=O)[C@H](CC(C)C)NC(=O)[C@H](CCCNC(=N)N)NC(=O)[C@H](CCC(=O)O)NC(=O)[C@@H](NC(=O)[C@H](C)NC(=O)[C@@H]1CSSC[C@H](NC(=O)[C@H](CCCNC(=N)N)NC(=O)CC[C@H](NC(=O)CCCCCCCCCCCCCCCCCCC(=O)O)C(=O)O)C(=O)NCC(=O)N[C@@H]([C@@H](C)O)C(=O)N[C@@H](C)C(=O)N[C@@H]([C@@H](C)O)C(=O)N1)[C@@H](C)O)[C@@H](C)O
B6: [19CD]-isoGlu-R-C( )-GTAT-C( )-ATERLAHFLTRSSF-Gly(Me)-A-Ile(Me)-LSSTEVGS-Orn-TP-NH2 (Compd. 47) (peptide)
peptide: {C20 diacid}-[γGlu]RCGTATCATERLAHFLTRSSF[Sar]A[NMeI]LSSTEVGS[Orn]TP-NH2
modifications: disulfide 3-8
SMILES: CC[C@H](C)[C@@H](C(=O)N[C@@H](CC(C)C)C(=O)N[C@@H](CO)C(=O)N[C@@H](CO)C(=O)N[C@H](C(=O)N[C@@H](CCC(=O)O)C(=O)N[C@H](C(=O)NCC(=O)N[C@@H](CO)C(=O)N[C@@H](CCCN)C(=O)N[C@H](C(=O)N1CCC[C@H]1C(N)=O)[C@@H](C)O)C(C)C)[C@@H](C)O)N(C)C(=O)[C@H](C)NC(=O)CN(C)C(=O)[C@H](Cc1ccccc1)NC(=O)[C@H](CO)NC(=O)[C@H](CO)NC(=O)[C@H](CCCNC(=N)N)NC(=O)[C@@H](NC(=O)[C@H](CC(C)C)NC(=O)[C@H](Cc1ccccc1)NC(=O)[C@H](Cc1c[nH]cn1)NC(=O)[C@H](C)NC(=O)[C@H](CC(C)C)NC(=O)[C@H](CCCNC(=N)N)NC(=O)[C@H](CCC(=O)O)NC(=O)[C@@H](NC(=O)[C@H](C)NC(=O)[C@@H]1CSSC[C@H](NC(=O)[C@H](CCCNC(=N)N)NC(=O)CC[C@H](NC(=O)CCCCCCCCCCCCCCCCCCC(=O)O)C(=O)O)C(=O)NCC(=O)N[C@@H]([C@@H](C)O)C(=O)N[C@@H](C)C(=O)N[C@@H]([C@@H](C)O)C(=O)N1)[C@@H](C)O)[C@@H](C)O
B7: [19CD]-isoGlu-R-C( )-GTAT-C( )-ATERLAHFLTRSSF-Gly(Me)-A-Ile(Me)-LSSTEVGSTT-Hyp-NH2 (Compd. 48) (peptide)
peptide: {C20 diacid}-[γGlu]RCGTATCATERLAHFLTRSSF[Sar]A[NMeI]LSSTEVGSTT[Hyp]-NH2
modifications: disulfide 3-8
SMILES: CC[C@H](C)[C@@H](C(=O)N[C@@H](CC(C)C)C(=O)N[C@@H](CO)C(=O)N[C@@H](CO)C(=O)N[C@H](C(=O)N[C@@H](CCC(=O)O)C(=O)N[C@H](C(=O)NCC(=O)N[C@@H](CO)C(=O)N[C@H](C(=O)N[C@H](C(=O)N1C[C@H](O)C[C@H]1C(N)=O)[C@@H](C)O)[C@@H](C)O)C(C)C)[C@@H](C)O)N(C)C(=O)[C@H](C)NC(=O)CN(C)C(=O)[C@H](Cc1ccccc1)NC(=O)[C@H](CO)NC(=O)[C@H](CO)NC(=O)[C@H](CCCNC(=N)N)NC(=O)[C@@H](NC(=O)[C@H](CC(C)C)NC(=O)[C@H](Cc1ccccc1)NC(=O)[C@H](Cc1c[nH]cn1)NC(=O)[C@H](C)NC(=O)[C@H](CC(C)C)NC(=O)[C@H](CCCNC(=N)N)NC(=O)[C@H](CCC(=O)O)NC(=O)[C@@H](NC(=O)[C@H](C)NC(=O)[C@@H]1CSSC[C@H](NC(=O)[C@H](CCCNC(=N)N)NC(=O)CC[C@H](NC(=O)CCCCCCCCCCCCCCCCCCC(=O)O)C(=O)O)C(=O)NCC(=O)N[C@@H]([C@@H](C)O)C(=O)N[C@@H](C)C(=O)N[C@@H]([C@@H](C)O)C(=O)N1)[C@@H](C)O)[C@@H](C)O

These binders were tested against T1, human amylin receptor 3 (hAMYR3), hCTR2 … (assay: cell-based or functional assay).

| hAMYR3 EC50 (nM); cAMP induction | Binder |
| --- | --- |
| 0.3 nM | B1 |
| 0.35 nM | B2 |
| 0.14 nM | B3 |
| 0.34 nM | B4 |
| 0.31 nM | B5 |
| 0.19 nM | B6 |
| 0.26 nM | B7 |
